In patent publication US20020137684A1, “Ligand for enhancing oral and CNS delivery of biological agents” (priority 2000, published 2002):
Where no end group is shown, it is not given here. [ ]: non-standard residue; d: D form. TAMRA = carboxytetramethylrodamine

Tests used:
[1] = tested on: Caco-2 monolayers; experiment: Transport of peptides across Caco-2 monolayers (Transwell, fluorescence); assay type: in vitro ADME, human; details: 50 micromol/L apical
Procedure: The desired numbers of Transwell (6.5mm diameter, 0.4 μm pore size) were placed in the wells of the tissue culture plates. The filters were wetted with medium (0.1 ml to the apical and 0.6 ml to the basolateral sides of Transwell) for 30 min in the CO2 incubator before the harvest of the cells from the flasks. The cells were re-suspended in the medium 5×10^5 cells/ml and 0.2 ml of cell suspension medium was added to the apical side of the Transwell and cultured in the CO2 incubator. The medium was changed every second day for 8-12 days to obtain well-differentiated monolayers suitable for transport experiences.
The medium in apical chamber was gently removed. […] The inserts were transferred to the new chamber. […] Peptide SEQ. ID. NO.: 2, or SEQ. ID.
The concentration of peptide in sample was determined by the fluorescence of the sample using excitation 530 nm, emission 590 nm. The concentration of dextran in samples was determined by the fluorescence of the sample using excitation 480 nm, emission 530 nm.

[2] = tested on: Caco-2 monolayers; experiment: Transport of peroxidase conjugate across Caco-2 monolayers; details: 25 µg/ml apical, peroxidase activity
Procedure: A two-chamber Caco-2 model was used to evaluate the transport of a conjugate comprising peroxidase and a peptide comprising an amino acid sequence of SEQ. ID. NO.:1 across the intestinal barrier (IB) in vitro. […] The medium containing isotope-labeled compound, the SEQ. ID. NO.:1-Peroxidase conjugate ([…]) or Control Peroxidase conjugate ([…]) was added to the apical side of cultured Caco-2 monolayers.

[3] = tested on: Caco-2 monolayers; experiment: Inhibition of phage transport across Caco-2 monolayers by SEQ. ID. NO.:1-Peroxidase conjugate; details: 50 μg/ml conjugate, 3 hours
Procedure: The cell monolayers on the insert filter apically and basolaterally were rinsed twice on each side with PBS and pre-incubated with pre-warmed D-MEM for 30 min. The medium in apical chamber was gently removed. […] The inserts were transferred to the new chamber. ^3H-Manitol was used as a probe to monitor Caco-2 monolayer leakiness. The medium containing isotope-labeled compound, a phage that expresses a peptide comprising an amino acid sequence of SEQ. […] NO.:4 (5×10^9 cfu/ml) or wild-type phage (Control phage 1.5×10^9 cfu/ml) in the presence and absence of 50 μg/ml of SEQ. […] NO.:1-Peroxidase conjugate was added to the apical side. After 3 hours incubation, the media from apical and basolateral sides of the chamber was collected and used to determine the phage and ^3H-manitol transport across Caco-2 monolayers. The relative transport of compounds in % through Caco-2 was calculated as:
where Cb is a concentration of compound in basolateral chamber, Ca is a concentration of compound in the apical chamber, Vb is a volume of media in basolateral chamber and Va is a volume of media in the apical chamber. The transport of phage that expresses a peptide comprising an amino acid sequence of SEQ. […] NO.:4, or peptide SEQ. […] NO.:1-Peroxidase conjugate was detected.

[4] = tested on: CACO 2 cells; experiment: Digestion of peptide in apical chamber of Caco-2 cells (HPLC); assay type: in vitro ADME, human
Procedure: Digestion of peptide SEQ. ID. NO.:2 in apical chamber was determined using HPLC. The samples were diluted 100 times with the media, and 0.200 mL of each was injected on a column RP-HPLC column Vydac 218TP54, pre equilibrated 15 minutes with 5 acetonitroile/water (10 mM phosphoric acid) at flow rate 1 mL per minute. Sample was eluted with two component gradient 1% per minute of acetonitrole (10 mM phosphoric acid)/water (10 mM phosphoric acid) at flow rate 1 mL per minute. Fluorescent detection was used with excitation wavelength 555 nm and emission wavelength 580 nm. The peptide SEQ. ID. NO.: 2 was eluted as sharp peak at 22.3 min. The percentage of remaining peptide was calculated as: […]
where A—area under the peak at 22.3 min, SUM(Ai)—the sum of area of all peaks eluted between 13 and 26 minutes.

Substance | Transport [%] ([1]; 0.5 h) | Transport [%] ([1]; 1.0 h) | Transport [%] ([1]; 2.0 h) | Transport [%] ([1]; […]) | Transport through Caco-2 monolayers, P, % ([2]; 2 hours) [%] | Transport through Caco-2 monolayers, P, % ([2]; 4 hours) [%] | inhibition of transport of SEQ. ID. NO.:4 phage across Caco-2 monolayers [3] | Remaining peptide [%] ([4]; 0.5 h incubation with CACO 2 cells) | Remaining peptide [%] ([4]; 1 h incubation with CACO 2 cells) | Remaining peptide [%] ([4]; 2 h incubation with CACO 2 cells)
tamra-D-Ala-D-Ser-D-Ala-D-Arg-D-Val-D-Leu-D-Asp-D-Gly-D-Asp-D-Arg-D-Thr-D-Arg-D-Trp-D-Gly-NH2 ({TAMRA}-[dA][dS][dA][dR][dV][dL][dD]G[dD][dR][dT][dR][dW]G-NH2) [SEQ. ID. NO. 3] | 0.06 | 0.43 | 1.03 | 0.30 | – | – | – | – | – | –
SEQ. ID. NO.:1-Peroxidase Conjugate (Ac-CRVLDGDRTRWG; also: peroxidase conjugate) | – | – | – | – | 0.35 ± 0.014 | 0.705 ± 0.09 | completely inhibited | – | – | –
dextran [reference compound] | 0.05 | 0.16 | 0.63 | 0.38 | – | – | – | – | – | –
tamra-Ala-Ser-Ala-Arg-Val-Leu-Asp-Gly-Asp-Arg-Thr-Arg-Trp-Gly-NH2 ({TAMRA}-ASARVLDGDRTRWG-NH2) [SEQ. ID. NO.: 2] | 0.22 | 0.16 | 1.23 | 0.71 | – | – | – | 86 | 84 | 63
